Measured values published in PMC5959800 (The international journal of biochemistry & cell biology, 2018).

Target: T1, Histidine-tagged AIMP1 (immobilised in SPR) (UniProt Q12904 1-312)
T1 sequence (looked up): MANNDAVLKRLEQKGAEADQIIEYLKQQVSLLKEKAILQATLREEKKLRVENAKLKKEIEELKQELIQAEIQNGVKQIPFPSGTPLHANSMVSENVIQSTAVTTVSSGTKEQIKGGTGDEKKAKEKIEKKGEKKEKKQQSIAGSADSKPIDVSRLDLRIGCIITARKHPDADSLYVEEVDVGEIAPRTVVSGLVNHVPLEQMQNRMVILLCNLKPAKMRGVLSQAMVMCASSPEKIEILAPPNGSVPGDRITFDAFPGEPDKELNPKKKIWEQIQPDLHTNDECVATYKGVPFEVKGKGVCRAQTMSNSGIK
Assay: SPR

- Kd: 25.3 nM
B1: His-tagged AIMP3 (natural protein, UniProt O43324 1-174, looked up)
chain: MAAAAELSLLEKSLGLSKGNKYSAQGERQIPVLQTNNGPSLTGLTTIAAHLVKQANKEYLLGSTAEEKAIVQQWLEYRVTQVDGHSSKNDIHTLLKDLNSYLEDKVYLTGYNFTLADILLYYGLHRFIVDLTVQEKEKYLNVSRWFCHIQHYPGIRQHLSSVVFIKNRLYTNSH
